From the supplement of paper PMC10724198
± gives the standard deviation of the averaged measurements.

Columns and labels:
[1] = system: Saccharomyces cerevisiae; assay: protein stability index of tFT-peptide fusion (C-terminal peptide) (PSI (0-1 scale)); higher = more stable (slower turnover)
Experimental: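 MPS profiling in S. cerevisiae of the tFT-X12 degron library: putative degron peptides plus stable controls, 12 aa, fused to the C-terminus of a sfGFP-mCherry timer. Cells are FACS-sorted into 8 mCherry/sfGFP bins and deep-sequenced. PSI runs from 0 (unstable) to 1 (stable). Backgrounds are wild type, das1Δ and doa10Δ at 30 °C, and wild type, das1Δ, cdc34-1 and cdc53-1 at 37 °C; 2-3 technical replicates each.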

[2] = system: Saccharomyces cerevisiae; assay: as above; conditions: genetic background: wild type; temperature: 30 C
[3] = genetic background: cdc34-1, temperature: 37 C
[4] = genetic background: cdc53-1, temperature: 37 C
[5] = genetic background: das1 deletion, temperature: 30 C
[6] = genetic background: das1 deletion, temperature: 37 C
[7] = genetic background: doa10 deletion, temperature: 30 C
[8] = genetic background: wild type, temperature: 30 C
[9] = genetic background: wild type, temperature: 37 C
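Further: PSI is a weighted mean of sequencing reads over stability bins, variants kept only with over 10 reads, mCherry proximal and sfGFP distal, peptide attached via GGGS linker.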

Row | Sequence | protein stability index [1, 3] | protein stability index [1, 4] | protein stability index [1, 5] | protein stability index [1, 6] | protein stability index [1, 7] | protein stability index [1, 8] | protein stability index [1, 9] | protein stability index [2]
1 | LGVLVVCFNATY | 0.24 ± 0.0032 | 0.343 ± 0.0057 | 0.27 ± 0.014 | 0.42063 ± 0.00021 | 0.2506 ± 0.00074 | 0.264 ± 0.02 | 0.376 ± 0.017 | 0.354 ± 0.013
2 | LHLTFRLAVLYY | 0.3205 ± 0.002 | 0.355 ± 0.0097 | 0.293 ± 0.037 | 0.395 ± 0.03 | 0.317 ± 0.029 | 0.275 ± 0.021 | 0.371 ± 0.039 | 0.338 ± 0.032
3 | LIIVFGFTSILR | 0.441 ± 0.02 | 0.572 ± 0.018 | 0.36 ± 0.043 | 0.526 ± 0.018 | 0.355 ± 0.015 | 0.328 ± 0.037 | 0.509 ± 0.048 | 0.419 ± 0.093
4 | LIPFPGFFILLT | 0.244 ± 0.021 | 0.13 ± 0.0096 | 0.277 ± 0.021 | 0.37 ± 0.046 | 0.49 ± 0.023 | 0.28 ± 0.05 | 0.315 ± 0.054 | 0.436 ± 0.0094
5 | LISRGNRALFCI | 0.678 ± 0.044 | 0.739 ± 0.013 | 0.589 ± 0.017 | 0.755 ± 0.029 | 0.204 ± 0.015 | 0.224 ± 0.03 | 0.482 ± 0.016 | 0.314 ± 0.02
6 | LLAREILVIVAV | 0.181 ± 0.0035 | 0.229 ± 0.017 | 0.207 ± 0.032 | 0.32 ± 0.017 | 0.166 ± 0.0048 | 0.204 ± 0.015 | 0.271 ± 0.0034 | 0.307 ± 0.0051
7 | LLCLAVVLWFVV | 0.216 ± 0.035 | 0.338 ± 0.019 | 0.239 ± 0.031 | 0.4051 ± 0.0011 | 0.212 ± 0.012 | 0.241 ± 0.024 | 0.3362 ± 0.0005 | 0.307 ± 0.03
8 | LLCSPPPLTVPA | 0.394 ± 0.044 | 0.4424 ± 0.00065 | 0.324 ± 0.045 | 0.478 ± 0.017 | 0.275 ± 0.0087 | 0.327 ± 0.034 | 0.44 ± 0.0091 | 0.454 ± 0.025
9 | LLFVLWLSFFVL | 0.3135 ± 0.0016 | 0.384 ± 0.074 | 0.272 ± 0.03 | 0.449 ± 0.012 | 0.239 ± 0.0027 | 0.247 ± 0.034 | 0.382 ± 0.04 | 0.346 ± 0.031
10 | LLGDFAVLTCVF | 0.468 ± 0.049 | 0.496 ± 0.039 | 0.372 ± 0.024 | 0.4825 ± 0.0011 | 0.343 ± 0.0054 | 0.377 ± 0.027 | 0.465 ± 0.022 | 0.453 ± 0.0086
11 | LLGGFAAFWRIL | 0.631 ± 0.061 | 0.713 ± 0.0012 | 0.618 ± 0.012 | 0.753 ± 0.014 | 0.135 ± 0.015 | 0.15 ± 0.02 | 0.297 ± 0.026 | 0.226 ± 0.06
12 | LLLFLHILRYVF | 0.541 ± 0.026 | 0.551 ± 0.015 | 0.417 ± 0.028 | 0.581 ± 0.046 | 0.398 ± 0.025 | 0.368 ± 0.016 | 0.529 ± 0.088 | 0.414 ± 0.026
13 | LLLFLHSTLTCR | 0.474 ± 0.056 | 0.543 ± 0.01 | 0.408 ± 0.035 | 0.618 ± 0.018 | 0.383 ± 0.011 | 0.411 ± 0.02 | 0.558 ± 0.022 | 0.49 ± 0.011
14 | LLLLASLFFRLA | 0.522 ± 0.023 | 0.595 ± 0.01 | 0.467 ± 0.031 | 0.614 ± 0.03 | 0.177 ± 0.011 | 0.194 ± 0.015 | 0.37 ± 0.028 | 0.3 ± 0.016
15 | LLLPVFLVFSVS | 0.295 ± 0.046 | 0.417 ± 0.005 | 0.269 ± 0.037 | 0.482 ± 0.012 | 0.2258 ± 0.0016 | 0.256 ± 0.03 | 0.47 ± 0.058 | 0.326 ± 0.034
16 | LLLSLLVLRFFL | 0.37 ± 0.043 | 0.309 ± 0.007 | 0.356 ± 0.047 | 0.536 ± 0.033 | 0.5037 ± 0.0014 | 0.357 ± 0.028 | 0.501 ± 0.019 | 0.423 ± 0.027
17 | LLMPLLLHSLVW | 0.354 ± 0.021 | 0.396 ± 0.012 | 0.308 ± 0.019 | 0.455 ± 0.0014 | 0.308 ± 0.0067 | 0.335 ± 0.0096 | 0.434 ± 0.024 | 0.409 ± 0.005
18 | LLPSNFLLLVGV | 0.219 ± 0.051 | 0.204 ± 0.011 | 0.217 ± 0.03 | 0.325 ± 0.014 | 0.208 ± 0.012 | 0.231 ± 0.023 | 0.2857 ± 0.0024 | 0.289 ± 0.032
19 | LMIVSVRLLFFL | 0.229 ± 0.049 | 0.39 ± 0.0024 | 0.232 ± 0.029 | 0.419 ± 0.015 | 0.1617 ± 0.00049 | 0.172 ± 0.019 | 0.282 ± 0.014 | 0.2661 ± 0.002
20 | LPAICFWCVLVG | 0.0778 ± 0.014 | 0.136 ± 0.00061 | 0.164 ± 0.025 | 0.273 ± 0.035 | 0.133 ± 0.024 | 0.162 ± 0.04 | 0.21 ± 0.013 | 0.201 ± 0.0059

Row | Sequence | protein stability index [1, 3] | protein stability index [1, 4] | protein stability index [1, 5] | protein stability index [1, 6] | protein stability index [1, 7] | protein stability index [1, 8] | protein stability index [1, 9] | protein stability index [2]
21 | LPNLPPTSPERH | 0.638 ± 0.0034 | 0.734 ± 0.015 | 0.652 ± 0.021 | 0.7046 ± 0.0062 | 0.6558 ± 0.0059 | 0.659 ± 0.015 | 0.703 ± 0.0097 | 0.663 ± 0.33
22 | LPPSPPCQSPAL | 0.667 ± 0.021 | 0.716 ± 0.012 | 0.672 ± 0.015 | 0.728 ± 0.012 | 0.681 ± 0.03 | 0.667 ± 0.019 | 0.685 ± 0.013 | 0.743 ± 0.018
23 | LPPYPPPVPILI | 0.449 ± 0.0069 | 0.455 ± 0.021 | 0.362 ± 0.031 | 0.519 ± 0.0006 | 0.322 ± 0.0038 | 0.39 ± 0.026 | 0.489 ± 0.0053 | 0.493 ± 0.017
24 | LPSLRPPPCIRA | 0.4441 ± 0.002 | 0.473 ± 0.013 | 0.36 ± 0.038 | 0.54 ± 0.02 | 0.332 ± 0.041 | 0.345 ± 0.015 | 0.513 ± 0.014 | 0.48 ± 0.018
25 | LQYSKALAVICG | 0.218 ± 0.034 | 0.264 ± 0.027 | 0.235 ± 0.041 | 0.367 ± 0.01 | 0.19 ± 0.017 | 0.221 ± 0.033 | 0.317 ± 0.023 | 0.374 ± 0.05
26 | LRALGPRIYRIS | 0.661 ± 0.076 | 0.747 ± 0.025 | 0.645 ± 0.015 | 0.747 ± 0.016 | 0.194 ± 0.0089 | 0.199 ± 0.012 | 0.417 ± 0.016 | 0.317 ± 0.035
27 | LRLFIFLLFSVF | 0.246 ± 0.025 | 0.282 ± 0.023 | 0.268 ± 0.034 | 0.39 ± 0.012 | 0.19 ± 0.0081 | 0.175 ± 0.015 | 0.249 ± 0.013 | 0.198 ± 0.013
28 | LSFFFWFIFSLC | 0.475 ± 0.013 | 0.492 ± 0.053 | 0.429 ± 0.028 | 0.5328 ± 0.0043 | 0.344 ± 0.035 | 0.325 ± 0.0039 | 0.443 ± 0.027 | 0.376 ± 0.019
29 | LSLFCFFLLVLF | 0.203 ± 0.025 | 0.224 ± 0.021 | 0.272 ± 0.047 | 0.332 ± 0.011 | 0.305 ± 0.0094 | 0.206 ± 0.03 | 0.288 ± 0.0084 | 0.2279 ± 0.0013
30 | LSPLPSPLILVV | 0.116 ± 0.08 | 0.16 ± 0.021 | 0.201 ± 0.0086 | 0.228 ± 0.0065 | 0.14761 ± 5.3e-05 | 0.191 ± 0.034 | 0.182 ± 0.022 | 0.284 ± 0.014
31 | LSRELRFVGFYH | 0.637 ± 0.07 | 0.751 ± 0.019 | 0.656 ± 0.017 | 0.717 ± 0.025 | 0.222 ± 0.004 | 0.229 ± 0.054 | 0.517 ± 0.043 | 0.318 ± 0.066
32 | LSRLWVVGWVVA | 0.453 ± 0.019 | 0.472 ± 0.028 | 0.345 ± 0.032 | 0.529 ± 0.0071 | 0.191 ± 0.0034 | 0.234 ± 0.025 | 0.399 ± 0.013 | 0.295 ± 0.036
33 | LSSIIRFLIFCL | 0.496 ± 0.024 | 0.532 ± 0.015 | 0.495 ± 0.024 | 0.5964 ± 0.0026 | 0.398 ± 0.031 | 0.366 ± 0.0049 | 0.469 ± 0.0062 | 0.404 ± 0.013
34 | LTIYPLTYCFVS | 0.629 ± 0.051 | 0.704 ± 0.046 | 0.562 ± 0.025 | 0.657 ± 0.058 | 0.45336 ± 0.00045 | 0.44 ± 0.023 | 0.568 ± 0.025 | 0.502 ± 0.035
35 | LVDSRIVWLFVS | 0.325 ± 0.095 | 0.584 ± 0.034 | 0.439 ± 0.026 | 0.632 ± 0.024 | 0.0761 ± 0.016 | 0.0713 ± 0.017 | 0.0698 ± 0.021 | 0.0955 ± 0.039
36 | LVFFAYLIRGAL | 0.344 ± 0.0086 | 0.462 ± 0.011 | 0.364 ± 0.031 | 0.518 ± 0.015 | 0.0526 ± 0.0068 | 0.0682 ± 0.0051 | 0.0558 ± 0.0015 | 0.108 ± 0.036
37 | LVGLESCGERAG | 0.655 ± 0.00071 | 0.7436 ± 0.0018 | 0.644 ± 0.025 | 0.7308 ± 0.0011 | 0.643 ± 0.027 | 0.654 ± 0.0009 | 0.72 ± 0.024 | 0.69 ± 0.035
38 | LVHLVLYVAVFC | 0.317 ± 0.043 | 0.4112 ± 0.0015 | 0.292 ± 0.048 | 0.409 ± 0.0046 | 0.2877 ± 0.0014 | 0.309 ± 0.013 | 0.398 ± 0.0049 | 0.283 ± 0.074
39 | LVLLRLSSLTIF | 0.627 ± 0.01 | 0.699 ± 0.0095 | 0.561 ± 0.018 | 0.707 ± 0.012 | 0.269 ± 0.011 | 0.314 ± 0.011 | 0.549 ± 0.034 | 0.404 ± 0.0068
